# Reference: PMC6009646, “Regional conformational flexibility couples substrate specificity and scissile phosphate diester selectivity in human flap endonuclease 1”
# Target: hFEN1QF (Homo sapiens, UniProt P39748 1-336, E120C;C235A;S293C;C311A)
# Experiment: single-molecule FRET; 8 mM Ca2+; 20 nM DNA, ~50 pM protein; NMR: 10 mM HEPES-KOH pH 7.5, 6 mM KCl (76 mM KCl in titration), 0.1 mM EDTA, 4 mM NaN3, 100 mM bME, 298 K; smFRET: 55 mM HEPES-KOH pH 7.5, 110 mM KCl, 8 mM CaCl2, 0.1 mg/ml BSA, 1 mM DTT, room temperature
# Settings: protein: recombinant; tags: C-terminal HRV 3C-cleavable His6, cleaved; six residual C-terminal residues of the 3C site; bimolecular double flap: 5-nt 5' flap, 1-nt 3' flap; T1 has a GAA hairpin; F1:T1 annealed 1:1.1
# Sequence of hFEN1QF (P39748 1-336 E120C/C235A/S293C/C311A): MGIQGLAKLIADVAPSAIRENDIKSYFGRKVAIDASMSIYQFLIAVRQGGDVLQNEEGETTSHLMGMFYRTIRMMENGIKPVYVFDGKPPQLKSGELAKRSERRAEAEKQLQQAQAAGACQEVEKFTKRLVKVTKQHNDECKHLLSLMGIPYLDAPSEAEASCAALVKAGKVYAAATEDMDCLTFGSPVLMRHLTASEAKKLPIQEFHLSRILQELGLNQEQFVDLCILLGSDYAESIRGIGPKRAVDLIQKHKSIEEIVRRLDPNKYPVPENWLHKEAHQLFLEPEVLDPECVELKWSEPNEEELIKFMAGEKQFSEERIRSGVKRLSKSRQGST
binder,measurement,value
"DF5,1 (F1/T1) (structured_DNA) DNA 1: TTTTTACAAGGACTGCTCGACAC DNA 2: GTGTCGAGCAGTCCTTGTGACGACGAAGTCGTCC",binding result,binds
